Measurements taken from patent US20110319324A1.

How the values were obtained:
[1] = molecular target: ErbB1 receptor (EGF receptor) on HeLa cells (UniProt P00533); assay: cell-based or functional assay
[2] = molecular target: EGF receptor (ErbB1) on HeLa 229 cells (UniProt P00533); assay: cell-based or functional assay

Chain of PEGylated betacellulin produced using the mPEG-SMB-20K reagent (P35070 other isoform, or with tags, fused parts or gaps limits assumed): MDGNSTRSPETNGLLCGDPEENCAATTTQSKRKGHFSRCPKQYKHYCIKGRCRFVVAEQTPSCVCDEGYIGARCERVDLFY
Chain of PEGylated betacellulin produced using the mPEG-ButyrALD-20K reagent (P35070 other isoform, or with tags, fused parts or gaps limits assumed): as above
Chain of Unreacted (SEC fraction of the PEGylation reactions, presumably unreacted betacellulin) (P35070 other isoform, or with tags, fused parts or gaps limits assumed): as above

Row | Substance | betacellulin activity in the phospho-EGFR pY1068 ELISA on HeLa 229 cells ([1]; scale: % reduction against unreacted betacellulin) | activity % (phospho-EGFR pY1068 ELISA, HeLa 229 cells) [2] [%] | activity % (phospho-EGFR pY1068 ELISA, HeLa 229 cells; SEC column S200) [2] [%] | betacellulin activity in the phospho-EGFR pY1068 ELISA on HeLa 229 cells (fold lower than unreacted betacellulin) [1] | ELISA activity is equivalent to [BTC] nM (phospho-EGFR pY1068 ELISA, HeLa 229 cells; 40 nM submitted; SEC column S200) [2] [nM] | ELISA activity is equivalent to [BTC] nM (phospho-EGFR pY1068 ELISA, HeLa 229 cells; 40 nM submitted; SEC column S70) [2] [nM]
1 | PEGylated betacellulin produced using the mPEG-ButyrALD-20K reagent (from UniProt P35070 32-111) (ligand) | < 50 | 58 | 55 |  |  | 
2 | PEGylated betacellulin produced using the mPEG-SMB-20K reagent (from UniProt P35070 32-111) (ligand) |  | 26 | 34 | 3 | 14 | 
3 | Unreacted (SEC fraction of the PEGylation reactions, presumably unreacted betacellulin) (from UniProt P35070 32-111) (ligand) |  | 0 |  |  |  | 0
